According to patent publication US12590158 (XIYUAN ANJIAN MEDICINE SHANGHAI, dated 2026):

B1: anti-TrkA antibody 40D6 (antibody, V domains shown)
VH: QVQLQQSGTELMKPGASVKISCKATGYTFSRYWIEWVKQRPGHGLEWIGEILPGRSSTNYNEKFKGKATFTADTSSNTAYMQLSSLTSEDSAVYYCTRVSQLHIYFDYWGQGTTVTVSS
VL: DIVMTQVVPSVPVTPGESVSISCRSSKSLLHSNGNTYLYWFQQRPGQSPQLLIYRMSNLASGVPDRFSGSGSGTAFTLRISRVEAEDVAFYYCMQHLEFPLTFGAGTKLELK
notes: Murine monoclonal antibody purified from hybridoma medium by protein G
B2: anti-TrkA antibody 42A11 (antibody, V domains shown)
VH: QVQLQQPGAELVKPGASVKLSCKASGYTFTNYWMHWVKQRPGQGLEWIGEIYPSNGRTNYNEKFKTKATLTVDKSSSTAYMHLSSLTSEDSAVYYCAGSRYDAMDFWGQGTSVTVSS
VL: QIVLTQSPAIMSASPGEKVTMTCSASSIISYMHWYQQKSGTSPKRWIYDTSKLASGVPARFSGSGSGTSYSLTISGMEAEDAATYYCHQWTSNPLTFGGGTKLELK
notes: as for B1
B3: anti-TrkA antibody 42H6 (antibody, V domains shown)
VH: QVQLQQPGVELVKPGASVKLSCKTSGYTFTSYWMHWVKQRPGQGLEWIGEIYSSNGLTNYNEKFKNKATLTVDKSSSTAYMQLTSLTSEDSAIYYCARHWYVFLDHWGQGTTLTVSS
VL: QAVVTQESALTTSPGETVTLTCRSSTGAVTTSNHANWVQEKPDHLFTGLIGGINNRAPGVPARFSGSLIGDKAALTITGAQTEDEAIYFCALWYSNHWVFGGGTRLTVL
notes: as for B1

Legend:
[1] = target: T1, full-length human TrkA expressed on cells (human, UniProt P04629 33-796); experiment: cell-based or functional assay
T1 sequence (P04629 33-796): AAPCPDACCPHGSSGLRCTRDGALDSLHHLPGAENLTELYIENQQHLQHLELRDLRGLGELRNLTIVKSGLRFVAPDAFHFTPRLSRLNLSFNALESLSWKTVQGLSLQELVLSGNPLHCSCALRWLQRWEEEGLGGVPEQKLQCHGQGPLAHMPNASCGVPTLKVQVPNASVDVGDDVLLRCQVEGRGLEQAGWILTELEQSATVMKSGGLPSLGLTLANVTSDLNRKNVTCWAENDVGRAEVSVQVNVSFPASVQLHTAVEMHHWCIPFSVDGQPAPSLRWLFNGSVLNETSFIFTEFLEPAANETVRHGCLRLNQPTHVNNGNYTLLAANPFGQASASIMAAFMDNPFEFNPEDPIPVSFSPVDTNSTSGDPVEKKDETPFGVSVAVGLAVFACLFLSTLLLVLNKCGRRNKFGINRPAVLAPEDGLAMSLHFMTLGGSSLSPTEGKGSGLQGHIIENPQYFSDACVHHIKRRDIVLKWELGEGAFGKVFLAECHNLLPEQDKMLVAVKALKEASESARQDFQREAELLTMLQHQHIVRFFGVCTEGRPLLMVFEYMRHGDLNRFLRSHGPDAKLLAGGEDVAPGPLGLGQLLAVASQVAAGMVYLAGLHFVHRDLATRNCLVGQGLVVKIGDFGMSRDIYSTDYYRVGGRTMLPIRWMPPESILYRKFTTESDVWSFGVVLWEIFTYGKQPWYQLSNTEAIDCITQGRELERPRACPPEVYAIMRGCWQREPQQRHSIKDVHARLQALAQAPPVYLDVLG

[2] = target: T1, full-length human TrkA expressed on …; experiment: cell-based or functional assay; remark: listed apart in the source
[3] = target: T1, full-length human TrkA expressed on …; experiment: cell-based or functional assay; remark: listed apart in the source
[4] = target: fusion protein (fused to human Fc) containing only the portion of human TrkA extracellular region that binds NGF (TrkA 192-402) (ACROBiosystems TRA-H5258) (human) (UniProt P04629); experiment: ELISA, coated human TrkA (192-402)-hFc
Chain of fusion protein (fused to human Fc) containing only the portion of human TrkA extracellular region that binds NGF (TrkA 192-402) (ACROBiosystems TRA-H5258) (human) (P04629 192-402 limits assumed, form in doubt): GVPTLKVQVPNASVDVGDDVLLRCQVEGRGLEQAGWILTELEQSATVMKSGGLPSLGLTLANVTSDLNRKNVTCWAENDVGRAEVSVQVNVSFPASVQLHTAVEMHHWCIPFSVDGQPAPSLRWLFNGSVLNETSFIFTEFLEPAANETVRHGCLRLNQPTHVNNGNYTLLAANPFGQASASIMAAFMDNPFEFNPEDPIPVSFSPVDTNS

[5] = target: T2, TrkA extracellular region (33-417) protein comprising human Fc (ACROBiosystems TRA-H5259) (human, UniProt P04629 33-417); experiment: ELISA, coated human TrkA (33-417)-hFc, anti-mouse Fc-HRP
T2 construct: range 33-417; Bought fusion protein; also called human TrkA (33-417); human TrkA extracellular region
T2 sequence (P04629 33-417 limits assumed): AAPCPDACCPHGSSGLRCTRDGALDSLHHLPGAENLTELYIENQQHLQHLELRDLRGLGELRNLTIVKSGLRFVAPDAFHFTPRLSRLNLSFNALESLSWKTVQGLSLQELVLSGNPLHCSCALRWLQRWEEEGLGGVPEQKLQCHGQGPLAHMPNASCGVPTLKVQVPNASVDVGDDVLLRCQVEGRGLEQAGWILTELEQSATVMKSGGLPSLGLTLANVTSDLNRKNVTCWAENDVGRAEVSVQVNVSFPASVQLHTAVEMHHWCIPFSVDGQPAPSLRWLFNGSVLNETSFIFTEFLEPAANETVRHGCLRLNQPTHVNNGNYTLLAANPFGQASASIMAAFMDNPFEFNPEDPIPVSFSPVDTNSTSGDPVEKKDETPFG
Procedure: (§1) Example 2: ELISA Detection of the Binding of Murine Anti-TrkA Antibodies to Human TrkA The binding abilities of the anti-TrkA antibodies were detected by using a TrkA extracellular region (33-417) protein comprising human Fc (Beijing ACROBiosystems Co., Ltd., TRA-H5259). Each well of a 96-well microtiter plate was coated with 50 ng of human TrkA, washed and blocked, and then added with serially diluted antibodies, and incubated at room temperature for 1 hour. After washing three times, horseradish peroxidase-conjugated goat anti-mouse Fc antibody (Biolegend, 405306) was added and incubated at room temperature for 1 hour. After washing three time, tetramethylbenzidine (TMB, Biolegend, 421101) was added for color development. 1M HCl was used to terminate the color development, and the absorbance values were read at 450 nm with a microplate reader.

[6] = target: T3, rat TrkA extracellular region fusion protein (fused to human Fc) (Yiqiao Shenzhou 80243-R03H) (rat, UniProt P35739 33-418); experiment: ELISA, plate coated with rat TrkA extracellular region-hFc, HRP goat anti-mouse Fc detection
T3 construct: extracellular domain; Bought fusion protein
T3 sequence (P35739 33-418, stated change not applied): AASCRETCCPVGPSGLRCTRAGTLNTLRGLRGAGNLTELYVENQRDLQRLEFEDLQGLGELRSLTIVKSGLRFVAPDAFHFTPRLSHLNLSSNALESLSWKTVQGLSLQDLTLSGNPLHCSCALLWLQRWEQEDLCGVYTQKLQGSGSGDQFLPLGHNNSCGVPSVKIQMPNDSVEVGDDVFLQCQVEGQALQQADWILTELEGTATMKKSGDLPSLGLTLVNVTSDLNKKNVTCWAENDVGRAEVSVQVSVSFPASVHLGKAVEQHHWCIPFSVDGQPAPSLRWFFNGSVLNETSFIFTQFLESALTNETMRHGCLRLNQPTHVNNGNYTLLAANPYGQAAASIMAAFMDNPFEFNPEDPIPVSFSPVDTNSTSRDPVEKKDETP
Procedure: as §1
(§2) In addition, the species cross-reactivities of anti-TrkA antibodies were detected with monkey TrkA (Hangzhou Haoyang Biotechnology Co., Ltd., HSP037-05), rat TrkA (Beijing Yiqiao Shenzhou Technology Co., Ltd., 80243-R03H), mouse TrkA (Beijing Yiqiao Shenzhou Technology Co., Ltd., 51103-M02H) extracellular region fusion protein (fused to human Fc).

[7] = target: T2, TrkA extracellular region (33-417) …; experiment: competition ELISA, coated TrkA (33-417)-hFc, antibody titrated, competitor biotin-labeled human NGF
Procedure: Each well of a 96-well microtiter plate was coated with 50 ng of TrkA extracellular region (33-417) protein fused to human Fc, washed three times and blocked with 3% BSA for 1 hour. […] Each well was added with 100 μl and incubated at room temperature for 30 minutes. […] Streptavidin-labeled horseradish peroxidase (Streptavidin-HRP, Biolegend, 405210) was added and incubated for 0.5 hours. After washing three times, TMB was added to the plate, and the absorbance at 450 nm was read by a microplate reader after the color development was terminated.

[8] = target: T2, TrkA extracellular region (33-417) …; experiment: BLI (ForteBio Octet Red96), TrkA (33-417)-hFc captured on anti-human Fc sensor, antibody in solution
Source text: Example 3: Affinity Assay of Murine Anti-TrkA Antibodies Binding to Human TrkA The affinities of the antibodies were detected with Biomolecular Interaction Detection Platform (ForteBio Octet Red96 (PALL)).
Human TrkA extracellular region (33-417) protein containing human Fc tag was fixed onto a chip by using an anti-human Fc capture sensor (Fortebio, 18-5088), and then bound to gradient concentrations of anti-TrkA antibody.

[9] = target: T4, mouse TrkA extracellular region fusion protein (fused to human Fc) (Yiqiao Shenzhou 51103-M02H) (mouse, UniProt Q3UFB7 34-420); experiment: ELISA, plate coated with mouse TrkA extracellular region-hFc, HRP goat anti-mouse Fc detection
T4 construct: extracellular domain; Bought fusion protein
T4 sequence (Q3UFB7 34-420, stated change not applied): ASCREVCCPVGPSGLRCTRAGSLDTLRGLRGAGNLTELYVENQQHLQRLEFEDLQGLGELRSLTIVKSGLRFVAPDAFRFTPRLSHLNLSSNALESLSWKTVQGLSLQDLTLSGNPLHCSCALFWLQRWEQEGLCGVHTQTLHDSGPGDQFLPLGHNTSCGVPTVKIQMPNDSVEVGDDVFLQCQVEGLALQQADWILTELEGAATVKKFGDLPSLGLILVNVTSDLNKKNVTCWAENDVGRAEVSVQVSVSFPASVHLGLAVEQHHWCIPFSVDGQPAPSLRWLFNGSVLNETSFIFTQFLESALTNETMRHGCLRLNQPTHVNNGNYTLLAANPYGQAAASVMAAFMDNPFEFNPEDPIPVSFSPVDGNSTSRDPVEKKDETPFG
Procedure: as §1, §2

[10] = target: T5, human TrkB extracellular region protein (Yiqiao Shenzhou 10047-H03H) (human, UniProt Q16620 32-430); experiment: ELISA, plate coated with human TrkB extracellular region protein, HRP goat anti-mouse Fc detection
T5 construct: extracellular domain; Bought protein
T5 sequence (Q16620 32-430): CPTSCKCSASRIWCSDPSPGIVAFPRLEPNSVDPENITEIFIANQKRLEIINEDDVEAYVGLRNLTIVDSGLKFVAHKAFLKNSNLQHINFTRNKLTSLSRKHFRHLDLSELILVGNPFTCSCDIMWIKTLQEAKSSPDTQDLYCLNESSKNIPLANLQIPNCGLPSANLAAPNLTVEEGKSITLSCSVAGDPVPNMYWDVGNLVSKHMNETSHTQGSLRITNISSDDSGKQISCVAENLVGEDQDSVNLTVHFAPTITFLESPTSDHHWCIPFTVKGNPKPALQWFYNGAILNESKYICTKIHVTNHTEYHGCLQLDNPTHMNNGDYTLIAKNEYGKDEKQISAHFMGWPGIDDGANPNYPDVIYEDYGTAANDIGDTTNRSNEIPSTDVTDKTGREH
Procedure: as §1
(§3) Example 7: Detection of the Binding of Murine Anti-TrkA Antibodies to TrkA Proteins of the Same Family Each well of a 96-well microtiter plate was coated with 50 ng of human TrkA extracellular region protein, human TrkB extracellular region protein (Beijing Yiqiao Shenzhou Technology Co., Ltd., 10047-H03H), human TrkC extracellular region protein (Beijing Yiqiao Shenzhou Technology Co., Ltd., 10048-H03H). The bindings of the anti-TrkA antibodies to human TrkA and the two proteins of the same family were detected according to the method described in Example 2.

[11] = target: T6, human TrkC extracellular region protein (Yiqiao Shenzhou 10048-H03H) (human, UniProt Q16288 32-429); experiment: ELISA, plate coated with human TrkC extracellular region protein, HRP goat anti-mouse Fc detection
T6 construct: extracellular domain; Bought protein
Procedure: as §1, §3

Binder	inhibition of NGF-induced TrkA/Ba/F3 cell proliferation at 2.5 µg/mL (16.67 nM) or higher [1]	IC50 of inhibiting NGF-induced TF-1 cell proliferation [2]	IC50 of inhibiting NGF-induced TrkA/Ba/F3 cell proliferation [3]	EC50 [4]	EC50 [5]	binding result [6]	IC50 [7]	Kd [8]	koff [8]	kon [8]	binding result [9]	binding result [10]	binding result [11]
B1	100%	8.53 nM	1.8 nM	0.195 nM	0.202 nM	binds	2.28 nM	0.0271 nM	2.49e-05 s⁻¹	918000 M⁻¹ s⁻¹	binds	no binding (tested: 66.67 nM)	no binding (tested: 66.67 nM)
B2	100%	1.46 nM	0.738 nM	0.234 nM	0.187 nM	binds	2.05 nM	0.00142 nM	1.26e-06 s⁻¹	889000 M⁻¹ s⁻¹	binds	no binding (tested: 66.67 nM)	no binding (tested: 66.67 nM)
B3	100%	3.58 nM	0.782 nM	0.175 nM	0.135 nM	binds	2.19 nM	0.00677 nM	9.91e-06 s⁻¹	1.47e+06 M⁻¹ s⁻¹	binds	no binding (tested: 66.67 nM)	no binding (tested: 66.67 nM)
